Assay results reported in the supplement of paper PMC10567573.

B1: DUSP5 (parent)
chain: YSEYPECCVDVKPISQEKIESERA
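Further: lentivirally expressed fusions sorted by FACS into six bins by GFP to DsRed ratio, PSI derived from sequencing read proportions per bin multiplied by bin number.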

Variants of: B1
Experiment: protein stability index of a GFP-peptide fusion (GPS, HEK-293T) (PSI 1-6); higher = more stable
Conditions: c terminus: a fixed tail appended
For YSEYPECCVMVKPISQEKIESERA, the protein stability index was 2.91. In the case of YSEYPECCVNVKPISQEKIESERA, the protein stability index is reported as 2.18. For YSEYPECCVPVKPISQEKIESERA, the protein stability index was 3.96. YSEYPECCVRVKPISQEKIESERA showed a protein stability index of 2.84. Variant YSEYPECCVSVKPISQEKIESERA has a protein stability index of 3.88. YSEYPECCVTVKPISQEKIESERA showed a protein stability index of 2.85. For YSEYPECCVWVKPISQEKIESERA, the protein stability index was 1.74. In the case of YSEYPECCVYVKPISQEKIESERA, the protein stability index is reported as 3.04. With YSEYPECCVDAKPISQEKIESERA the protein stability index was 4.23. Variant YSEYPECCVDCKPISQEKIESERA has a protein stability index of 3.38. YSEYPECCVDDKPISQEKIESERA showed a protein stability index of 5.42. Work on YSEYPECCVDEKPISQEKIESERA yielded a protein stability index of 4.25. With YSEYPECCVDFKPISQEKIESERA the protein stability index was 3.53. With YSEYPECCVDKKPISQEKIESERA the protein stability index was 4.17. YSEYPECCVDLKPISQEKIESERA gave a protein stability index of 3.84. In the case of YSEYPECCVDMKPISQEKIESERA, the protein stability index is reported as 4.09. Variant YSEYPECCVDNKPISQEKIESERA has a protein stability index of 4.51. YSEYPECCVDPKPISQEKIESERA showed a protein stability index of 3.61. YSEYPECCVDQKPISQEKIESERA showed a protein stability index of 5. With YSEYPECCVDRKPISQEKIESERA the protein stability index was 3.45. In the case of YSEYPECCVDSKPISQEKIESERA, the protein stability index is reported as 4.24. For YSEYPECCVDTKPISQEKIESERA, the protein stability index was 3.95. With YSEYPECCVDWKPISQEKIESERA the protein stability index was 4.09. In the case of YSEYPECCVDYKPISQEKIESERA, the protein stability index is reported as 3.4. Work on YSEYPECCVDVAPISQEKIESERA yielded a protein stability index of 4.47. Variant YSEYPECCVDVCPISQEKIESERA has a protein stability index of 3.96. With YSEYPECCVDVDPISQEKIESERA the protein stability index was 4.46. For YSEYPECCVDVFPISQEKIESERA, the protein stability index was 3.83. With YSEYPECCVDVHPISQEKIESERA the protein stability index was 4.95. For YSEYPECCVDVIPISQEKIESERA, the protein stability index was 3.72. Work on YSEYPECCVDVMPISQEKIESERA yielded a protein stability index of 4.18. With YSEYPECCVDVNPISQEKIESERA the protein stability index was 4.07. YSEYPECCVDVPPISQEKIESERA showed a protein stability index of 4.32. YSEYPECCVDVQPISQEKIESERA gave a protein stability index of 4.77. With YSEYPECCVDVRPISQEKIESERA the protein stability index was 4.25. YSEYPECCVDVSPISQEKIESERA gave a protein stability index of 3.02. For YSEYPECCVDVTPISQEKIESERA, the protein stability index was 4.07. Variant YSEYPECCVDVVPISQEKIESERA has a protein stability index of 4.14. YSEYPECCVDVWPISQEKIESERA gave a protein stability index of 3.26. Variant YSEYPECCVDVKAISQEKIESERA has a protein stability index of 4.56. Work on YSEYPECCVDVKCISQEKIESERA yielded a protein stability index of 4.88. With YSEYPECCVDVKDISQEKIESERA the protein stability index was 4.47. Work on YSEYPECCVDVKEISQEKIESERA yielded a protein stability index of 4.19. YSEYPECCVDVKFISQEKIESERA showed a protein stability index of 3.85. Variant YSEYPECCVDVKGISQEKIESERA has a protein stability index of 4.03. Work on YSEYPECCVDVKHISQEKIESERA yielded a protein stability index of 4.03. YSEYPECCVDVKIISQEKIESERA showed a protein stability index of 3.69. Work on YSEYPECCVDVKKISQEKIESERA yielded a protein stability index of 4.12. For YSEYPECCVDVKLISQEKIESERA, the protein stability index was 3.22. In the case of YSEYPECCVDVKMISQEKIESERA, the protein stability index is reported as 3.5. YSEYPECCVDVKNISQEKIESERA showed a protein stability index of 3.96. In the case of YSEYPECCVDVKQISQEKIESERA, the protein stability index is reported as 4.14. With YSEYPECCVDVKRISQEKIESERA the protein stability index was 3.48. YSEYPECCVDVKSISQEKIESERA showed a protein stability index of 3.33. With YSEYPECCVDVKTISQEKIESERA the protein stability index was 4.18. YSEYPECCVDVKVISQEKIESERA gave a protein stability index of 2.85. YSEYPECCVDVKWISQEKIESERA showed a protein stability index of 3.17. YSEYPECCVDVKYISQEKIESERA showed a protein stability index of 3.29. YSEYPECCVDVKPASQEKIESERA gave a protein stability index of 4.58. With YSEYPECCVDVKPCSQEKIESERA the protein stability index was 3.86. With YSEYPECCVDVKPDSQEKIESERA the protein stability index was 4.81. For YSEYPECCVDVKPESQEKIESERA, the protein stability index was 4.5. Work on YSEYPECCVDVKPFSQEKIESERA yielded a protein stability index of 4.18. With YSEYPECCVDVKPGSQEKIESERA the protein stability index was 3.83. YSEYPECCVDVKPHSQEKIESERA showed a protein stability index of 4.29. YSEYPECCVDVKPKSQEKIESERA showed a protein stability index of 4.43. Work on YSEYPECCVDVKPMSQEKIESERA yielded a protein stability index of 4.65. With YSEYPECCVDVKPNSQEKIESERA the protein stability index was 3.31. For YSEYPECCVDVKPPSQEKIESERA, the protein stability index was 4.45. Work on YSEYPECCVDVKPQSQEKIESERA yielded a protein stability index of 4.48. For YSEYPECCVDVKPRSQEKIESERA, the protein stability index was 3.45. Variant YSEYPECCVDVKPSSQEKIESERA has a protein stability index of 4.4. YSEYPECCVDVKPTSQEKIESERA gave a protein stability index of 3.48. Variant YSEYPECCVDVKPVSQEKIESERA has a protein stability index of 4.11. In the case of YSEYPECCVDVKPWSQEKIESERA, the protein stability index is reported as 3.9. With YSEYPECCVDVKPYSQEKIESERA the protein stability index was 3.84. For YSEYPECCVDVKPIAQEKIESERA, the protein stability index was 4.16. YSEYPECCVDVKPICQEKIESERA showed a protein stability index of 4.14. In the case of YSEYPECCVDVKPIDQEKIESERA, the protein stability index is reported as 4.81. In the case of YSEYPECCVDVKPIEQEKIESERA, the protein stability index is reported as 4.18. With YSEYPECCVDVKPIFQEKIESERA the protein stability index was 3.64. Variant YSEYPECCVDVKPIGQEKIESERA has a protein stability index of 4.45. YSEYPECCVDVKPIHQEKIESERA gave a protein stability index of 4.47. Variant YSEYPECCVDVKPIIQEKIESERA has a protein stability index of 3.82. For YSEYPECCVDVKPIKQEKIESERA, the protein stability index was 3.68. Variant YSEYPECCVDVKPILQEKIESERA has a protein stability index of 3.68. YSEYPECCVDVKPIPQEKIESERA showed a protein stability index of 4.38. With YSEYPECCVDVKPIQQEKIESERA the protein stability index was 4.05. With YSEYPECCVDVKPIRQEKIESERA the protein stability index was 4.09. Variant YSEYPECCVDVKPITQEKIESERA has a protein stability index of 3.85. In the case of YSEYPECCVDVKPIVQEKIESERA, the protein stability index is reported as 3.96. YSEYPECCVDVKPIYQEKIESERA gave a protein stability index of 4.18. In the case of YSEYPECCVDVKPISAEKIESERA, the protein stability index is reported as 3.74. Variant YSEYPECCVDVKPISDEKIESERA has a protein stability index of 4.67.
